In patent US20020151477, “Nuclear receptor coactivator” (published 2002):

Columns and labels:
[1] = target: T1, TRα/RXRα + GST-RAP250 (818-931) complex (Homo sapiens (TRα) / Rattus norvegicus …, UniProt P10827-2;Q05343;Q9JL19 P10827-2:1-410,Q05343:1-467,Q9JL19:818-931); test: EMSA; weak supershift without ligand, pronounced with T3 and/or 9-cis RA; conditions: tags: GST-RAP250 purified from E. coli; label: 32P (dCTP)
T1 chain 1: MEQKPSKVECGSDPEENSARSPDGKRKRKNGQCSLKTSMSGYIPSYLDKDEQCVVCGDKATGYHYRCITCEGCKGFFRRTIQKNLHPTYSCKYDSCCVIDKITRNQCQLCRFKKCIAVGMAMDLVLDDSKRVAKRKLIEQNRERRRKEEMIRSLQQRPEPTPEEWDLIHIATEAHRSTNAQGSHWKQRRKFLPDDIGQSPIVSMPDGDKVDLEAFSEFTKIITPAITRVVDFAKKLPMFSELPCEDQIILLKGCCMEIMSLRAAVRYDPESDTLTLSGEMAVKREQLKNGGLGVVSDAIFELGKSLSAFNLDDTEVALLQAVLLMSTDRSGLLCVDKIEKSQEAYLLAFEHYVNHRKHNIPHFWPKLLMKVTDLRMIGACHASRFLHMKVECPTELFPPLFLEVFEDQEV
T1 chain 2: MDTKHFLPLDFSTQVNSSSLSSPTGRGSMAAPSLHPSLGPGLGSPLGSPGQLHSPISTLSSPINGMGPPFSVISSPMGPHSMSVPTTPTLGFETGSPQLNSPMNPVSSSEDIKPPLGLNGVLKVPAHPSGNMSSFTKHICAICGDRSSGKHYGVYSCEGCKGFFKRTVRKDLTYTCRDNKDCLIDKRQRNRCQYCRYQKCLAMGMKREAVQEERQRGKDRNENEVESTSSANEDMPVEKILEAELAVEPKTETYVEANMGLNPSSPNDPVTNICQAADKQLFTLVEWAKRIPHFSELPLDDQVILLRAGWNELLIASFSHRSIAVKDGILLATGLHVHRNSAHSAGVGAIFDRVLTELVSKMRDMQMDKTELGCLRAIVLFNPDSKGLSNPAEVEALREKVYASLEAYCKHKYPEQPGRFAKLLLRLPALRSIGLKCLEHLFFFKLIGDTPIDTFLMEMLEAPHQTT
T1 chain 3: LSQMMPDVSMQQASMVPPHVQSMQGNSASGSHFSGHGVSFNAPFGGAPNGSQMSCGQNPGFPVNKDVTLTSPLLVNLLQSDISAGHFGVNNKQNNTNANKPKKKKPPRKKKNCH

TRα/RXRα heterodimer = target: T2, TRα/RXRα heterodimer (Homo sapiens (TRα) / Rattus norvegicus …, UniProt P10827-2;Q05343 P10827-2:1-410,Q05343:1-467); test: EMSA; with and without T3 / 9-cis RA; GST alone does not interact with the complex; on ice; conditions: tags: pCMVhTRα and pBKCMVrRXRα, rabbit reticulocyte lysate TNT; label: 32P (dCTP)
T2 sequence 1: T1 chain 1
T2 sequence 2: T1 chain 2

TRβ/RXRα heterodimer = target: T3, TRβ/RXRα heterodimer (Homo sapiens (TRβ) / Rattus norvegicus …, UniProt P10828;Q05343 P10828:1-461,Q05343:1-467); test: EMSA; oligomeric complex with GST-RAP250; conditions: tags: pCMVhTRβ and pBKCMVrRXRα, rabbit reticulocyte lysate TNT; label: 32P (dCTP)
T3 sequence 1: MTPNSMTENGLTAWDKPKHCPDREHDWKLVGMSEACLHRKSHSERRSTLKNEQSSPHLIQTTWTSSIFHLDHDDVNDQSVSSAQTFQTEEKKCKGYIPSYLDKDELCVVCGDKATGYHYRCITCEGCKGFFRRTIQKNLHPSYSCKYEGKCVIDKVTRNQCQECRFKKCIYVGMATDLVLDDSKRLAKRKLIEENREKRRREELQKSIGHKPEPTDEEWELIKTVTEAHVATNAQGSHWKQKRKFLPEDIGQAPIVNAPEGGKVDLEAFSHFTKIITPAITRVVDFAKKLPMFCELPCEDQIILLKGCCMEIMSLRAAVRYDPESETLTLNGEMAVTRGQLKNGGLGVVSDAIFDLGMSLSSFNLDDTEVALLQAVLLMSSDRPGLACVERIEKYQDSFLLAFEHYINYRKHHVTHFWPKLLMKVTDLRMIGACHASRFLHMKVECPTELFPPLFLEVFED
T3 sequence 2: T1 chain 2

Measured: binding result

B1: DR4-TRE (dsDNA)
DNA 1: TCGATCAGGTCATTTCAGGTCAGAG
DNA 2: CTCTGACCTGAAATGACCTGATCGA
binds: [1] | TRα/RXRα heterodimer | TRβ/RXRα heterodimer
